Assay results as given in patent US20230416365A1 (Hoffmann-La Roche, published 2023).

T1: human CD19 on Nalm6 B cells (human, UniProt P15391 20-556)
T1 sequence: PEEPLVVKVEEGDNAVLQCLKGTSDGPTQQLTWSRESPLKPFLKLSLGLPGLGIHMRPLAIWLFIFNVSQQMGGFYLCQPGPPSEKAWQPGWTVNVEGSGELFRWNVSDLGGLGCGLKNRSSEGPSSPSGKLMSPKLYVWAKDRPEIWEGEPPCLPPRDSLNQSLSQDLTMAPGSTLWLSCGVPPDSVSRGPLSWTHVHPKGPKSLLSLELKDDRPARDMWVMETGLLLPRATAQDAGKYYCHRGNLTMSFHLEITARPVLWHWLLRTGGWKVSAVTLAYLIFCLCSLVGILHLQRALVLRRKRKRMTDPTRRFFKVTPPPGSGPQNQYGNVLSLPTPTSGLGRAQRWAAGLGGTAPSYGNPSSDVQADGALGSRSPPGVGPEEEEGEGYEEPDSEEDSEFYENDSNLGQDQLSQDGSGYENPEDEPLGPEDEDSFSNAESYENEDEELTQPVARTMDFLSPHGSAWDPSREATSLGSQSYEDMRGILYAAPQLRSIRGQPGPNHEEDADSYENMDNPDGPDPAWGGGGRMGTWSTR


Assays:
[1] = target: T1, human CD19 on Nalm6 B cells; experiment: flow cytometry on Nalm6 B cells
[2] = target: T2, human CD28 on CHO cells (parental cell line CHO-k1 ATCC #CCL-61, modified to stably overexpress human CD28) (human, UniProt P10747 19-220); experiment: flow cytometry on CHOk1-CD28 cells
T2 construct: also called hu CD28; CHO-hCD28

| Binder | EC50 [1] [nM] | EC50 [2] [nM] |
| --- | --- | --- |
| CD19 (8B8-2B11)-CD28 (SA_v8) 1+1 (Molecule 18C) (bispecific antibody, human IgG1, kappa, L234A L235A, huIgG1 PG-LALA CrossFab; also called P1AF0175; CD19-CD28 v8) heavy 1: not shown light 1: not shown heavy 2: DIVMTQTPLSLSVTPGQPASISCKSSQSLETSTGTTYLNWYLQKPGQSPQLLIYRVSKRFSGVPDRFSGSGSGTDFTLKISRVEAEDVGVYYCLQLLEDPYTFGQGTKLEIKSSASTKGPSVFPLAPSSKSTSGGTAALGCLVKDYFPEPVTVSWNSGALTSGVHTFPAVLQSSGLYSLSSVVTVPSSSLGTQTYICNVNHKPSNTKVDKKVEPKSCDKTHTCPPCPAPEAAGGPSVFLFPPKPKDTLMISRTPEVTCVVVDVSHEDPEVKFNWYVDGVEVHNAKTKPREEQYNSTYRVVSVLTVLHQDWLNGKEYKCKVSNKALGAPIEKTISKAKGQPREPQVCTLPPSRDELTKNQVSLSCAVKGFYPSDIAVEWESNGQPENNYKTTPPVLDSDGSFFLVSKLTVDKSRWQQGNVFSCSVMHEALHNHYTQKSLSLSP light 2: QVQLVQSGAEVKKPGASVKVSCKASGYTFTDYIMHWVRQAPGQGLEWMGYINPYNDGSKYTEKFQGRVTMTSDTSISTAYMELSRLRSDDTAVYYCARGTYYYGPQLFDYWGQGTTVTVSSASVAAPSVFIFPPSDEQLKSGTASVVCLLNNFYPREAKVQWKVDNALQSGNSQESVTEQDSKDSTYSLSSTLTLSKADYEKHKVYACEVTHQGLSSPVTKSFNRGEC | 0.232 | 232 |
| CD19 (8B8-2B11)-CD28 (SA_v11) 1+1 (Molecule D of Example 18; 18D) (bispecific antibody, human IgG1, kappa, L234A L235A, huIgG1 PG-LALA CrossFab; also called P1AF0377; CD19-CD28 v11) heavy 1: not shown light 1: not shown heavy 2: DIVMTQTPLSLSVTPGQPASISCKSSQSLETSTGTTYLNWYLQKPGQSPQLLIYRVSKRFSGVPDRFSGSGSGTDFTLKISRVEAEDVGVYYCLQLLEDPYTFGQGTKLEIKSSASTKGPSVFPLAPSSKSTSGGTAALGCLVKDYFPEPVTVSWNSGALTSGVHTFPAVLQSSGLYSLSSVVTVPSSSLGTQTYICNVNHKPSNTKVDKKVEPKSCDKTHTCPPCPAPEAAGGPSVFLFPPKPKDTLMISRTPEVTCVVVDVSHEDPEVKFNWYVDGVEVHNAKTKPREEQYNSTYRVVSVLTVLHQDWLNGKEYKCKVSNKALGAPIEKTISKAKGQPREPQVCTLPPSRDELTKNQVSLSCAVKGFYPSDIAVEWESNGQPENNYKTTPPVLDSDGSFFLVSKLTVDKSRWQQGNVFSCSVMHEALHNHYTQKSLSLSP light 2: QVQLVQSGAEVKKPGASVKVSCKASGYTFTDYIMHWVRQAPGQGLEWMGYINPYNDGSKYTEKFQGRVTMTSDTSISTAYMELSRLRSDDTAVYYCARGTYYYGPQLFDYWGQGTTVTVSSASVAAPSVFIFPPSDEQLKSGTASVVCLLNNFYPREAKVQWKVDNALQSGNSQESVTEQDSKDSTYSLSSTLTLSKADYEKHKVYACEVTHQGLSSPVTKSFNRGEC | 0.363 | 150 |
| CD19 (8B8-2B11)-CD28 (SA_v15) 1+1 (Molecule 18B) (bispecific antibody, human IgG1, kappa, L234A L235A, huIgG1 PG-LALA CrossFab; also called P1AE9040; CD19-CD28 v15) heavy 1: not shown light 1: not shown heavy 2: DIVMTQTPLSLSVTPGQPASISCKSSQSLETSTGTTYLNWYLQKPGQSPQLLIYRVSKRFSGVPDRFSGSGSGTDFTLKISRVEAEDVGVYYCLQLLEDPYTFGQGTKLEIKSSASTKGPSVFPLAPSSKSTSGGTAALGCLVKDYFPEPVTVSWNSGALTSGVHTFPAVLQSSGLYSLSSVVTVPSSSLGTQTYICNVNHKPSNTKVDKKVEPKSCDKTHTCPPCPAPEAAGGPSVFLFPPKPKDTLMISRTPEVTCVVVDVSHEDPEVKFNWYVDGVEVHNAKTKPREEQYNSTYRVVSVLTVLHQDWLNGKEYKCKVSNKALGAPIEKTISKAKGQPREPQVCTLPPSRDELTKNQVSLSCAVKGFYPSDIAVEWESNGQPENNYKTTPPVLDSDGSFFLVSKLTVDKSRWQQGNVFSCSVMHEALHNHYTQKSLSLSP light 2: QVQLVQSGAEVKKPGASVKVSCKASGYTFTDYIMHWVRQAPGQGLEWMGYINPYNDGSKYTEKFQGRVTMTSDTSISTAYMELSRLRSDDTAVYYCARGTYYYGPQLFDYWGQGTTVTVSSASVAAPSVFIFPPSDEQLKSGTASVVCLLNNFYPREAKVQWKVDNALQSGNSQESVTEQDSKDSTYSLSSTLTLSKADYEKHKVYACEVTHQGLSSPVTKSFNRGEC | 0.416 | 15.6 |
